Patent publication US20250250357A1 (NANJING ZAIMING PHARMACEUTICAL, published 2025)

What was measured:
[1] = target: T1, human MSLN-FL-his protein (human, UniProt Q13421 296-580); test: competitive ELISA; row F1.2.12; also: test concentration or dose not given here
T1 construct: made in HEK293E cells, purified on nickel column; also called hMSLN-FL-his; human MSLN full-length protein; not shown: His tag

[2] = target: T1, human MSLN-FL-his protein; test: competitive ELISA; row F1.56.1; also: test concentration or dose not given here
[3] = target: T1, human MSLN-FL-his protein; test: competitive ELISA; row F2.13.3; also: test concentration or dose not given here
[4] = target: T1, human MSLN-FL-his protein; test: competitive ELISA; row F2.17.3
[5] = target: T1, human MSLN-FL-his protein; test: competitive ELISA; row F2.39.3; also: test concentration or dose not given here
[6] = target: T1, human MSLN-FL-his protein; test: competitive ELISA; row F2.58.8; also: test concentration or dose not given here
[7] = target: T1, human MSLN-FL-his protein; test: competitive ELISA; row F1.35.24; also: test concentration or dose not given here
[8] = target: T1, human MSLN-FL-his protein; test: competitive ELISA; row F2.16.10; also: test concentration or dose not given here
[9] = target: T1, human MSLN-FL-his protein; test: competitive ELISA; row F2.24.10; also: test concentration or dose not given here
[10] = target: T1, human MSLN-FL-his protein; test: competitive ELISA; row Tab108 (R3); also: test concentration or dose not given here
[11] = target: T1, human MSLN-FL-his protein; test: competitive ELISA; row Tab142 (R1); also: test concentration or dose not given here
[12] = target: T1, human MSLN-FL-his protein; test: SPR (Biacore), antibody captured on Protein A chip;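 also: measured at 25 °C, analyte injected 240 s in five twofold dilutions from 200 nM, dissociation up to 600 s, double-referenced, fitted with Langmuir 1:1 model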
[13] = target: T1, human MSLN-FL-his protein; test: competitive ELISA; row Tab107 (conformation); also: test concentration or dose not given here

T1 sequence (Q13421 other isoform, or with tags, fused parts or gaps): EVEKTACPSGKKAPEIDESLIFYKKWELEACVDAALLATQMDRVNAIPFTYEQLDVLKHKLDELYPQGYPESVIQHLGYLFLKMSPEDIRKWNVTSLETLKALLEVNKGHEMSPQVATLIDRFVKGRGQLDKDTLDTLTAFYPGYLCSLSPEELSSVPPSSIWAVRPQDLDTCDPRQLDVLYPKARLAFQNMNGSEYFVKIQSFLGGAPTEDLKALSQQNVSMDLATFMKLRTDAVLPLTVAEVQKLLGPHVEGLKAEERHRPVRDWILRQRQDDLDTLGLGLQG

Binder | competition rate [1] [%] | competition rate [2] [%] | competition rate [3] [%] | competition rate [4] [%] | competition rate [5] [%] | competition rate [6] [%] | competition rate [7] [%] | competition rate [8] [%] | competition rate [9] [%] | competition rate [10] [%] | competition rate [11] [%] | Kd [12] [nM] | koff [12] [s⁻¹] | kon [12] [M⁻¹ s⁻¹] | competition rate [13] [%]
S009-F2.17.3 (antibody, human IgG1, kappa, V domains shown, human-murine chimeric antibody, human IgG1/kappa constant regions) VH: QVQLQQPGTELVTPGASVKLSCKASGYSFTSYWMHWVKQRPGQGLEWIGNINPSNGDTFYNEKFKNKATLTVDKSSSTAYMQLSSLTSEDSAVYYCARGWLRDYWGQGTTLTVSS VL: not shown | -182 | -56 | -814 | 102 | 106 | 78 | 43 | -8 | -13 | 100 | 15 | 2.72 | 0.000174 | 64100 | -1
S009-F2.23.12 (antibody, human IgG1, kappa, V domains shown, human-murine chimeric antibody, human IgG1/kappa constant regions) VH: QVQLQQPGTELVKPGASVKLSCKASGYTFTNYWMHWVKQRPGQGLEWIGNINPSNGGPYYNERFRSKATLTVDKSSSTAYMQLSSLTSEDSAVYYCARPYYGSSYGYFDYWGQGTTLTVSS VL: DIQMTQSPSSLSASLGGKVTITCKASQDINKYIAWYQHKPGKGPRLLIHYTSELQPGIPSRFSGNGSGRDYSFSISNLEPEDIATYYCLQYANPLRTFGGGTKLEIKR | -70 | 24 | -1080 | 90 | 97 | 69 | 61 | -42 | 2 | 85 | 23 | 8.71 | 0.000714 | 81900 | 3

Now from value to binder:

competition rate [1] [%] | competition rate [2] [%] | competition rate [3] [%] | competition rate [4] [%] | competition rate [5] [%] | competition rate [6] [%] | competition rate [7] [%] | competition rate [8] [%] | competition rate [9] [%] | competition rate [10] [%] | competition rate [11] [%] | Kd [12] [nM] | koff [12] [s⁻¹] | kon [12] [M⁻¹ s⁻¹] | competition rate [13] [%] | Binder
-133 | 104 | -396 | 84 | 91 | 111 | 96 | 41 | 6 | 60 | 46 | 0.524 | 0.000123 | 236000 | -6 | S009-F2.58.8 (antibody, human IgG1, kappa, V domains shown, human-murine chimeric antibody, human IgG1/kappa constant regions) VH: QVQLLQSGAELAKPGASVKLSCKASGYTFTSYWVHWVKQRPGQGLEWIGYINPNSGYTKYNQKFKDKATLTADKSSSTAYMQLSSLTYEDSAVYYCADHYYGSSRDYFDYWGQGTTLTVSS VL: QIVLTQSPAIMSASPGEKVTMTCSASSSVSYMYWYQQRPGSSPRLLIYDTSNLASGVPVRFSGSGSGTSYSLTISRMEAEDAATYYCQQWNSYPYTFGGGTKLEIKR
-208 | -87 | -525 | 107 | 105 | 97 | 47 | 4 | -13 | 101 | 19 | 3.06 | 0.000122 | 40000 | 0 | S009-F2.39.3 (antibody, human IgG1, kappa, V domains shown, human-murine chimeric antibody, human IgG1/kappa constant regions) VH: QVQLQQPGTELVKPGASVKLSCKASGYTFTNYWMHWVKQRPGQGLEWIGNINPSSGDSYYNERFMSKAKMTVDKSSSTAYMQLSSLTSEDSAVYYCARSGGLWLAFWGPGTLVTVSA VL: DIVMTQSPSSLAMSVGQKVTMSCKSSQTLLNSVSQNNYLAWYQQKPGQSPTLLVYFASTRESGVPDRFIGGGSGTDFTLTISSVQAEDLADYFCQQHYRTPYTFGGGTNLEIKR
